Entries after “also recorded” stand apart in the source; their conditions may differ. Values belong to the molecule of their own block, whether it stands above or below them.
Columns and labels:
Assay type in all cases: cell-based, mouse
[1] = tested on: canonical Wnt activity; assay: Topflash luciferase assay; conditions: in combination with Bmp4 (1.25 ng/ml); 88 h of differentiation
Protocol: To test this, canonical Wnt activity was measured with its readout Topflash.
For Tbx1 and Tbx5 knockdown experiments, Tbx1 and Tbx5 ON-TARGETplus SMARTpool siRNA or scrambled siRNA (Dharmacon/Thermo Fisher Scientic) was used at 5 nM for cell transfection. Cells were transfected with Lipofectamine LTX (Life Technologies) in single-cell suspensions. For TOP-flash luciferase assays, mESCs were transfected with Topflash constructs and Renilla constructs and analyzed as previously described 5.

[2] = tested on: ESC-derived cardiac spheroids (Hcn4-GFP; Tbx1-Cre; Ai9); assay: heart field specification: Hcn4-GFP+ and Tbx1-Cre, RFP+ CPCs in cardiac spheroids by FACS at day 5.5; conditions: for Bmp4-mediated induction of RFP+ cells (SHF) / Bmp4-mediated induction of GFP+ cells (FHF): in combination with Bmp4 (1.25 ng/ml), Noggin 100 ng/ml, dorsomorphin, K2288, DMH1 100 nM; for Bmp4-mediated induction of RFP+ cells (SHF): IWP-2 0.5 μM; for induction of GFP+ cells (FHF) / induction of RFP+ cells (SHF): increasing levels of the factor, day 5.5
From the text: (§1) Next, an embryonic stem cell (ESC) line (ESCHcn4-GFP; Tbx1-Cre Ai9) was established from the mice to determine if heart field specification can be recapitulated in a PSC system. It was hypothesized that a 3D multicellular system would better resemble heart field development in vivo, as early development is a highly dynamic process that involves tissue-tissue interactions between multiple cell types. Since CPCs are specified during mid-late gastrulation 7, 8, multicellular 3D spheroids were generated with the PSCs and treated them with various concentrations of Activin A and Bmp4 to determine whether induction of the early mesoderm influences heart field specification (FIGS. 1C and 1D).
IPA utilizes an input gene list and a curated database of literature-derived pathways to infer which canonical pathways are most significant to the input data set. The analysis was focused on pathways related to ‘organism growth and development’. […] The effect of Bmp signals was evaluated during heart field specification. In order to minimize the possibility of influencing heart field cells after induction, all of the data were analyzed within 12 hs after the appearance of GFP^+/RFP^+ cells.
(§2) Mouse ESCs and human iPSCs were maintained and differentiated as previously described^5, 43, 68 Briefly, mESCs were maintained on gelatin-coated dishes in maintenance medium (Glasgow minimum essential medium supplemented with 10% fetal bovine serum and […] Chir99021 and 1 μM PD98059 or 1000 U/ml ESGRO (Millipore, Billerica, Mass.), Glutamax, sodium pyruvate, MEM non-essential amino acids (Thermo Fisher Scientific). For spheroid formation and differentiation, mouse ESCs were plated in IMDM/Ham's F12 (Cellgro) (3:1) supplemented with N2, B27, penicillin/streptomycin, 2 mM GlutaMAX, 0.05% BSA, 5 ng/ml L-ascorbic acid (Sigma-Aldrich) and α-monothioglycerol (MTG; Sigma-Aldrich) at a final density of 100,000 cells/ml to allow spheroid formation. After 48 h spheroids were collected and transferred to ultra-low attachment plastic surface and induced for 40 hours with Activin A, Bmp4, Wnt3A, Wnt5A, Wnt11 (R&D Systems) alone or in combination. Human iPSCs were maintained in Geltrex-coated T25 flasks using Essential 8 medium. For spheroid formation and differentiation, hiPSCs were plated in RPMI plus B27 minus insulin with Bmp4 and CHIR99021 and incubated for 48 h. After 48 h media was changed to RPMI plus B27 minus insulin. The hiPSC line used in this study was developed by Dr. Linzhao Cheng, the Johns Hopkins University, and had was generated from a de-identified patient using an approved IRB protocol.
(§3) Mouse embryos (E7.75) were dissected using forceps under a stereomicroscope (Zeiss) and regions of interest were dissociated and harvested using TrypLE. Embryoid bodies (EBs) and cells were dissociated and harvested using TrypLE. Single-cells were analyzed for RFP/GFP expression or sorted using a SH800 Cell sorter (Sony Biotechnologies). Live cells were analyzed for RFP and GFP expression and stained with antibodies targeting for the presence of appropriate markers. […] Data was analyzed using FlowJo software.

[3] = tested on: ESC-derived cardiac spheroids; assay: qPCR of FHF (tbx5, hcn4) and SHF (tbx1, fgf10) markers in treated spheroids; conditions: in combination with Bmp4 (1.25 ng/ml), Wnts 100 ng/ml, dorsomorphin, K2288, DMH1 100 nM; for expression of SHF markers (tbx1, fgf10): IWP-2 0.5 μM
Protocol: To investigate the crosstalk between Bmp and Wnt signals, the spheroids were treated with Bmp4 and Wnts in combinations and analyzed expression levels of FHF (tbx5, hcn4) and SHF (tbx1, fgf10) markers.
as §2
RNA isolation was performed using either RNeasy Micro Kit (Cat #74004, Qiagen) or […]® PicoPure® RNA Isolation Kit following the manufacturer's instructions, and cDNA was generated using the high-capacity cDNA reverse transcription kit (Applied Biosystems). qPCR reactions were performed using the Taqman (Applied Biosystems) or Sybr Select qPCR mix (Thermo Fisher) with indicated primers. Gene expression levels were normalized to Gapdh. For the clonal cell-fate analysis, single Isl1-Cre RFP+, Cxcr4− and Isl1-Cre RFP^+, Cxcr4^+ cells were sorted at day 5.5 into 384-well plates and allowed to grow and differentiate for 7 days. […] RNA was isolated from 24 wells with colonies from Cxcr4− and Cxcr4+ sorted cells, respectively. Ct values<30 were considered positive. All samples were also analyzed for gapdh to exclude false-positive results.

[4] = tested on: ESC-derived cardiac spheroids; assay: cardiogenesis: cTnT+ cardiomyocytes in cardiac spheroids at day 9 (flow cytometry); conditions: varying/increasing concentrations; cTnT+ at day 9
From the text: as §1, with “1D). After 5 days of differentiation (120 h), GFP+ and RFP+ cells started to appear in the spheroids. The spheroids were analyzed for GFP+ and RFP+ cells by fluorescent activated cell sorting (FACS) at day 5.5 (132 h). […] The double positive GFP+/RFP+ cells correlated with the total number of GFP+ and RFP+ cells (FIG. 6J) and were sporadically interspersed within the GFP+ domain (FIG. 6K).” for “1D).”
The overall effects on cardiogenesis were evaluated by analyzing the number of cardiomyocytes at day 9 (FIG. 6L).
as §2, with “After 48 h media was changed to RPMI plus B27 minus insulin. The hiPSC line used in this study was developed by Dr. Linzhao Cheng, the Johns Hopkins University, and had was generated from a de-identified patient using an approved IRB protocol.” left out
as §3, with “Embryoid bodies (EBs) and cells were dissociated and harvested using TrypLE.” left out

Molecule: c1cc(-c2cnn3cc(-c4ccc(OCCN5CCCCC5)cc4)cnc23)ccn1 [dorsomorphin, reference compound]
- topflash / Wnt activity [1]: no effect

Molecule: COc1cc(-c2cc(-c3cccc(O)c3)cnc2N)cc(OC)c1OC [K2288, reference compound]
- Bmp4-mediated induction of RFP+ cells (SHF) [2]: without significantly affecting
- Bmp4-mediated induction of GFP+ cells (FHF) [2]: suppressed
- expression of SHF markers (tbx1, fgf10) [3]: without significantly affecting
- expression of FHF markers (tbx5, hcn4) [3]: suppressed
- topflash / Wnt activity [1]: without significantly affecting

Molecule: CC(C)Oc1ccc(-c2cnc3c(-c4ccnc5ccccc45)cnn3c2)cc1 [DMH1, reference compound]
- Bmp4-mediated induction of RFP+ cells (SHF) [2]: without significantly affecting
- Bmp4-mediated induction of GFP+ cells (FHF) [2]: suppressed
- expression of SHF markers (tbx1, fgf10) [3]: without significantly affecting
- expression of FHF markers (tbx5, hcn4) [3]: suppressed
- topflash / Wnt activity [1]: without significantly affecting

Molecule: Cc1ccc2nc(NC(=O)CSc3nc4c(c(=O)n3-c3ccccc3)SCC4)sc2c1 [IWP-2, reference compound]
- Bmp4-mediated induction of RFP+ cells (SHF) [2]: abolished
- expression of SHF markers (tbx1, fgf10) [3]: suppressed

B1: Activin A: TGF-β protein; key ligand for Activin/TGF signaling (protein, UniProt P08476 311-426, looked up)
Inhibin beta A chain: GLECDGKVNICCKKQFFVSFKDIGWNDWIIAPSGYHANYCEGECPSHIAGTSGSSLSFHSTVINHYRMRGHSPFANLKSCCVPTKLRPMSMLYYDDGQNIIKKDIQNMIVEECGCS
modifications: Inhibin beta A chain
- effect on cardiogenesis [4]: modest effect; also recorded: did not have a significant effect
- induction of GFP+ cells (FHF) [2]: no apparent effect; also recorded: no overall effect
- induction of RFP+ cells (SHF) [2]: no apparent effect; also recorded: no overall effect

B2: Wnt11: Wnt protein (noncanonical) (protein, UniProt O96014 25-354, looked up)
Protein Wnt-11: IKWLALSKTPSALALNQTQHCKQLEGLVSAQVQLCRSNLELMHTVVHAAREVMKACRRAFADMRWNCSSIELAPNYLLDLERGTRESAFVYALSAAAISHAIARACTSGDLPGCSCGPVPGEPPGPGNRWGGCADNLSYGLLMGAKFSDAPMKVKKTGSQANKLMRLHNSEVGRQALRASLEMKCKCHGVSGSCSIRTCWKGLQELQDVAADLKTRYLSATKVVHRPMGTRKHLVPKDLDIRPVKDSELVYLQSSPDFCMKNEKVGSHGTQDRQCNKTSNGSDSCDLMCCGRGYNPYTDRVVERCHCKYHWCCYVTCRRCERTVERYVCK
- expression of SHF markers (tbx1, fgf10) [3]: overall reduction
- expression of FHF markers (tbx5, hcn4) [3]: overall reduction

- topflash / Wnt activity [1]: further increased
B3: Wnt3A: Wnt protein (canonical) (protein, UniProt P56704 19-352, looked up)
Protein Wnt-3a: SYPIWWSLAVGPQYSSLGSQPILCASIPGLVPKQLRFCRNYVEIMPSVAEGIKIGIQECQHQFRGRRWNCTTVHDSLAIFGPVLDKATRESAFVHAIASAGVAFAVTRSCAEGTAAICGCSSRHQGSPGKGWKWGGCSEDIEFGGMVSREFADARENRPDARSAMNRHNNEAGRQAIASHMHLKCKCHGLSGSCEVKTCWWSQPDFRAIGDFLKDKYDSASEMVVEKHRESRGWVETLRPRYTYFKVPTERDLVYYEASPNFCEPNPETGSFGTRDRTCNVSSHGIDGCDLLCCGRGHNARAERRREKCRCVFHWCCYVSCQECTRVYDVHTCK
- induction of GFP+ cells (FHF) [2]: did not affect
- induction of RFP+ cells (SHF) [2]: increased numbers
- expression of SHF markers (tbx1, fgf10) [3]: further increase
- expression of FHF markers (tbx5, hcn4) [3]: reduction

B4: Wnt5A: Wnt protein (noncanonical) (protein, UniProt P41221 62-380, looked up)
Protein Wnt-5a: IIGAQPLCSQLAGLSQGQKKLCHLYQDHMQYIGEGAKTGIKECQYQFRHRRWNCSTVDNTSVFGRVMQIGSRETAFTYAVSAAGVVNAMSRACREGELSTCGCSRAARPKDLPRDWLWGGCGDNIDYGYRFAKEFVDARERERIHAKGSYESARILMNLHNNEAGRRTVYNLADVACKCHGVSGSCSLKTCWLQLADFRKVGDALKEKYDSAAAMRLNSRGKLVQVNSRFNSPTTQDLVYIDPSPDYCVRNESTGSLGTQGRLCNKTSEGMDGCELMCCGRGYDQFKTVQTERCHCKFHWCCYVKCKKCTEIVDQFVCK
- expression of SHF markers (tbx1, fgf10) [3]: overall reduction
- expression of FHF markers (tbx5, hcn4) [3]: overall reduction

B5: Noggin: blocks Bmps from binding their receptors (protein, UniProt Q13253 28-232, looked up)
Noggin: QHYLHIRPAPSDNLPLVDLIEHPDPIFDPKEKDLNETLLRSLLGGHYDPGFMATSPPEDRPGGGGGAAGGAEDLAELDQLLRQRPSGAMPSEIKGLEFSEGLAQGKKQRLSKKLRRKLQMWLWSQTFCPVLYAWNDLGSRFWPRYVKVGSCFSKRSCSVPEGMVCKPSKSVHLTVLRWRCQRRGGQRCGWIPIQYPIISECKCSC
- Bmp4-mediated induction of RFP+ cells (SHF) [2]: abolished
- Bmp4-mediated induction of GFP+ cells (FHF) [2]: abolished
- topflash / Wnt activity [1]: markedly reduced; also recorded: inhibition

From patent publication US20220073883A1, “COMPOSITIONS AND METHODS FOR GENERATION OF HEART FIELD-SPECIFIC PROGENITOR CELLS” (The Johns Hopkins University, priority 2018, published 2022)
